These results are taken from the nanobody polyreactivity screen of Harvey et al. (2022).

The nature of the series: yeast display, Sf9 membrane polyspecificity reagent, FACS + sequencing; frameworks hold sequencing errors. The procedure, abridged: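 After 36–48 hours of galactose induction, yeast (Saccharomyces cerevisiae BJ5465) displaying a synthetic nanobody library were stained at 4 °C for 1 hour with 10% biotinylated, detergent-solubilized Sf9 membrane reagent. Streptavidin microbeads enriched the stained cells before FACS sorting into low and high (top ~1%) gates on anti-HA and streptavidin fluorescence. Each clone's polyreactivity label reflects its gate of origin.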
Consider “QVQLVESGGGLVQAGGSLRLSCAASGRTFRYYVMGWYRQAPGKERELVAAITYSGGGTYYADSVKGRFTISRDNAKNTVYLQMNSLKPEDTAVYYCAAARTYQYDKYYYWGQGTQVTVSS”, for which the “polyreactivity (PSR sort gate)” value was “high polyreactivity”.

As to “QVQLVESGGGLVQAGGSLRLICDAYVSTFYYYAMGWYRQAPGKVRELVAAISSGGSTNYADSVKGRFTISRDNAKNTVYLQMNILKPEDTAVYYCNAYSYWWLGYDYWGQGTQVTVSS”, the “polyreactivity (PSR sort gate)” value is listed as “high polyreactivity”.

For “QVQRVDSGGGLVQAGGSLRLSCAASGITLLRYTMGWYRQAPGKERELLASITKRGGSTYYADSVKGRFTISRDNAKNTVYLQMNSLKPEDTAVYYCNADRHNSYYRKWDQLDMDYWGQGTQVTVSS”, the “polyreactivity (PSR sort gate)” value is given as “high polyreactivity”.

As to “QVQLVESGGGLVQEGGSLRLTCAASGRTFTVNAMGWYRQAPGKERELVARISYGGARTYYADSVKGRFTISRDNAKNTVYLQMNSLKPEDTAVYYCAAPGPRKYEYDYWGQGTQVTVSS”, the “polyreactivity (PSR sort gate)” value is reported as “high polyreactivity”.

With “QVQLVESGGGLVQAGGSLRLSCAASGRTFGSYGMGWYRQAPGKERELVAAISRSVGSTYYADSVKGRFTISRDNAKNSVYLQMNSLKPEDTAVYYCAVLNHRSFRYTSYYYWGQGTLVTVSS”, the “polyreactivity (PSR sort gate)” value is given as “high polyreactivity”.

Take “QVQLVESGGGLVQAGGSLRLSCAASGSTFGWYAMGWYRQAPGKERELVASITWDGGRTYYAHSVKGRFTISRDNAKNTVYLQMNSLKPEDTAVYYCAARGVSSPLNYWGQGSQVTVSS”: the “polyreactivity (PSR sort gate)” value is “low polyreactivity”.

On to “QVQLVESGGGLVQAGGSLRLSCAASGSIFSSYAMGWYRQAPGKERELVAAITTRGDSTRYADSVKGRFTISRDNAKNTVYLQMNSLKPEDTAVYYCAARRRGASKYGYWGQGTQVTVSS”, for which the “polyreactivity (PSR sort gate)” value is reported as “high polyreactivity”.

Consider “QVQLVESGGGLDQAGGSLRLSCAASGSTFYDNAMRWYRQAPGKERELVADISSGGRTNYADSVKGRFTISRDNAKNTVYLQMNCLKPEDTAVYYCAARLYVLRWYPYDYWGQGTQVTVSS”, for which the “polyreactivity (PSR sort gate)” value was “low polyreactivity”.

“QVQLVESGGGLVQAGGSLRLSCAASGRIIPYNTMGWYRQAPGKERELVAAISQSDTGTHYADSVKGRFTISRDNAKNTVYLQMNSLKPEDTAVYYCAVDWGYSDDVPYEYWGQGTQVTVSS”: the “polyreactivity (PSR sort gate)” value is on record as “low polyreactivity”.

As for “QVQLVESGGGLVQAGGSLRLTCAASGFTFRSYAMGWYRQAPGKEREWVAVISSSGGSTYYADSVKARFTISRDNAKNTVYLQMNSLKPEDTAVYYCNRRPATRAYLYDYWGQGTQVTGSS”, the “polyreactivity (PSR sort gate)” value is recorded as “high polyreactivity”.

Consider “QVHLVESGGGLVQAGGSLRLSCAASGNTFYAYARGWYRQAPGKERELVAAIARAGNTYYADSVKGRFTISRDNAKNTVYLQMNSLKPEDTAVYYCNADDWWYGDNYWGQGTEVTVSS”, for which the “polyreactivity (PSR sort gate)” value is on record as “high polyreactivity”.

Regarding “QVQLVESGGGLVQAGGSLRLSCAASGSTFYLYAMGWYRPAPGKERELVASITSGDGSTYYADSVKGRFTISRDNAKNTVYLQMNSLKPEDTAVYYCNAVLEGWFYQYDYWGQGTQVTVSS”, the “polyreactivity (PSR sort gate)” value was “low polyreactivity”.

“QVQLLESGGGLVQAGGSLRLSCAASGSTIVSYDMGWYRQAPGKERELVAAITYDGDSTYYADSVKGRFTISRDNAKNTVYLQMNSLKPEDTAVYYCAAEPGEDLKFRGGFEYWGQGTQVTVSS”: the “polyreactivity (PSR sort gate)” value was “low polyreactivity”.

With “QVQLVESGGGLVQAGGSLRLSCAASGRIFSRYAMGWYRQAHGKERELVAAISWSGGSTYYADSVKGRFTISRDNAKNTVYLQMNSLKPEDTAVYYCAARRSYSYGSWGQGTQVTVSS”, the “polyreactivity (PSR sort gate)” value is reported as “high polyreactivity”.

For the sequence “QVQLVDSGGGLVQAGGSLRISCAASGRNFGYNAMGSYRQAPGKERELVAAISSGGSTYYADSVKGLFTISRDNAKNTVYLQINSLKPEDTAVYFCAAEDYPPYPTDYDYWGQGSQVTVSS”, the “polyreactivity (PSR sort gate)” value is listed as “low polyreactivity”.

Turning to “QVQLVESGGGLVQAGGSLRLSCAASGRIFARNAMGWYIQAPWKERELVAAISWTGDSTYYADSVKGRFTISRDNAKNTVYLQMNSLKPEDTAVYYCNALVYHTKGDYGYWGQGTQVTVSS”, the “polyreactivity (PSR sort gate)” value is reported as “low polyreactivity”.

On to “QVQLVESGGGFVQAGGSLRLSCAASGRTFPEYDMGRYRQAPGKERELVAAISTSGGSTYYADSVKGRFTISRDIAKNTVYLQMNSLKPEDTGVYYCAAQVTSIWGFTYAYRYDYWGQGTHVTVSS”, for which the “polyreactivity (PSR sort gate)” value is recorded as “low polyreactivity”.

Take “QVQLVESGGGLVQAGGSLRLSCAASGRIFFRNAMGWYRQAPGKEREFVAAINWSGGSTYYADSVKGRFTISRDNAKNTVYLQMNSLKPEDTAVYYCAARGSRGGRRGATASMDYWGQGTQVTVSS”: the “polyreactivity (PSR sort gate)” value was “high polyreactivity”.

In the case of “QVQLVESGGGLVQAGGSLRLSCAASGFTLFTYAMGWYRQAPGKERELVAAIRSGGSTYYADSVKGRFTISRDTAKNTVYLQMNSLKPEDTAVYYCNAVYRYASGKYYYWGQGTQVTVSS”, the “polyreactivity (PSR sort gate)” value is “high polyreactivity”.

On to “QVQLVESGGGLVQAGGSLRLSCAASGRIFFHNAMGWYIQAPGKERELVATISWSGSSTYYADSVKGRFTISRDNAKNTVYLQMNSLKPEYTAVYYCNAVYGRFVVLRYDYWGQGTQVTVSS”, for which the “polyreactivity (PSR sort gate)” value is on record as “high polyreactivity”.

On to “QVQLVESGGGLVQAGGSLRLSCAASASNYERYVMGWNRQAPGKERELVAAISRSGGTTYYADSVKGRFTISRDNAKNTVYLQMNSLKPEDTAVYYCAARVPHDSAGYDYWGQATQVTVSS”, for which the “polyreactivity (PSR sort gate)” value is “high polyreactivity”.

Turning to “QVQLVESGGGLVQAGGSLRLRCAASGSTFEMYAMGWYRQEPGKERELVAAITWDTDSTYYADSVKGRFTISRDNAKNTVYLQMNSLKPEDTAVYYCNSQSGRASHYRGYGFDYWGQGTQVTVSS”, the “polyreactivity (PSR sort gate)” value is recorded as “high polyreactivity”.

As to “QVQLVESGGGLVQAGGSLRLSCAASASIFYIYGIGWYRQAPGKERELVARISSGDRTNYADSVKGRFTISRDNAKNTVYLHMNSLKAEDTAVYYCNARVSYYLGRYYWGQGTQVTVSS”, the “polyreactivity (PSR sort gate)” value is reported as “high polyreactivity”.

Regarding “QVQLVESGGGLVQAGGSLRLSCAASGFIFSYYTMGWYRQAPGKERELVAAISRRGGSTYYADSVQGRFTISRDNAKNTVYLQRNSLKPEDTAVYYCAAPRDWDAGDYWGQGTQVTVSS”, the “polyreactivity (PSR sort gate)” value is “high polyreactivity”.

In the case of “QVQLVESGGGLVQAGGSLRLSCAASGSTFNFYAMGWARQAPGKERELVAAIRQSSGRTYYADSVKGRFTISRDNAKNTVYLQMNSLKPEDTAVYYCNARVPRYNGGSTMEYWGQGTQVTVSS”, the “polyreactivity (PSR sort gate)” value was “high polyreactivity”.

For the sequence “QVHLVESGGGLVQAGGSLRLSCAASGRIFGGNVMGWYIQAPGKERELVAAISWSSGSTYYADSVKVLFTISLDNAKNTVYLQMNSQKPDDTSFYYCAADNSFRGYHSPYDYWGQGTQVTVSS”, the “polyreactivity (PSR sort gate)” value was “low polyreactivity”.

On to “QVQLVESGGGLVQAGGSLRLSCAASGRIFYLYAMGWYRQAPGTEREFVASITVSGSSTYYADSVKGRFTISRDNAKNTVYLQMNSLKPEDTAVYYCNTDAVRSYVWWGTSLYDYWGQGTQVTVSS”, for which the “polyreactivity (PSR sort gate)” value was “low polyreactivity”.

In the case of “QVQLVESGGGLVQAGGSLRLSCAASGRTFRCYAMGWYRQAPGKETELVAAITFSGGSTYYADSVKGRFTISRDNAKNTVYLQMNSLKPEDTAVYYCNAVYYRRKEYDYWGQGTQVTVSS”, the “polyreactivity (PSR sort gate)” value is “high polyreactivity”.

Take “QDQLVESGGGLVHAGGSLRLSCAASGSTFDRYALGWYRQAPVKERELVATITRSGSTNYADSVKGRFTISRDNAKNTVYLQMNSLKTEDTAVYYCAAYDRITRYDYWGQGTQVTVSS”: the “polyreactivity (PSR sort gate)” value is “high polyreactivity”.

For the sequence “QVQLVESGGGLVQAGGSLRLSCAATGFTFASYAMRLYRQAAGKETELVAAITWGTGTTSYADSVKGRFTISRDNAKNTVYLQMNSLKPEDTAVYYCATRFRPITYRRRYDYWGQGTQVTVSS”, the “polyreactivity (PSR sort gate)” value is reported as “low polyreactivity”.

As for “QVHLVESGGGLIQAGGSLRISSAPSGSTFGTYVMGWSRQAPGKERELVAAISKRGGRTYYADSVKGRFTISRDNAKNTVYVPMTSLKAEDTAVYYCYAVYLYSGSSARYYWGQGTEVTVSS”, the “polyreactivity (PSR sort gate)” value was “high polyreactivity”.

Consider “QVQLVESGGGLVQAGGSLRLSCAASGSIFFHNAMGWYRQAPGKERELVAAITSSGGRTYYADSVKGRFTISRDNAKNTVYLQMNSLKPEDTAVYYCDASPYGFRRNYYWGQGTQVTVSS”, for which the “polyreactivity (PSR sort gate)” value is listed as “high polyreactivity”.

In the case of “QVQLVESGGGLVQAGGSLRLSCAASGRIFEWNTMGWYRQAPGKEREVVATISWDGGSTYYADSVKGRFTISRDNAKNTVYLQMNSLIPEDTAVYYCNKSPLNFFRFRATYDYWGQGTQVTVSS”, the “polyreactivity (PSR sort gate)” value is “low polyreactivity”.

Turning to “QFQLVESGGGLVQAGGSLRLSCAASGRTFYLYAMGWYRQAPGKERELVASISWNGGSTYYADSVKGLFTISRDNAKNYVYLQMNSLKPEDTAVYYCATDSHRSRLNRPYQLFPAYYYWGQGTQVTVSS”, the “polyreactivity (PSR sort gate)” value is listed as “low polyreactivity”.

“QVQLVESGGGLVQAGGSLRLICAASALIFGAYTMGWYIQAPGKERELVAAIRRSGSTYYPDSVKGRFTISRDNAKNTVYLQMNSLKPEDTAVYYGNARIGPGRYTYYRSGYDYWGQGTQVTVSS”: the “polyreactivity (PSR sort gate)” value is given as “high polyreactivity”.

Consider “QVKLVESGGGLVQAGGSLRLTCAASGRTFARYAMGWSRQEPGKERELVAAISRRGTSTYYADSVKGRFTISRDNAKNTVYLQMNSLKPEDTAVYYCAVDPYLGHYDYWGQGTQVTVSS”, for which the “polyreactivity (PSR sort gate)” value is listed as “high polyreactivity”.

As to “QVDLVESAGGLVQAGGSLRLSCAASGSIFPGYTMGWYRQAPGQERELVAAISRRGGSTYYADSVKGRFTISRDNAKNTVYLQMNSLIPEDTAVYYCAIVPDYRFEYWGQGSQVTVSS”, the “polyreactivity (PSR sort gate)” value is recorded as “high polyreactivity”.

As for “QVQLVESGGGLVQAGGSLRLSCAASGITFSHNAMGWYRQAPGKERELVAAITRSGRSTYYADSVKGRFTISRDNAKNTVYLQMNSLKPEDTAVYYCSTDNHQRRAGSGYWGQGTQVTVSS”, the “polyreactivity (PSR sort gate)” value is reported as “low polyreactivity”.

Turning to “QVQLVESGGGLVQAGGSLRLSCAASGRTFQYNVMGWYRQAPGKEREFVAAITWNGGSTYYADSVKGRFTISRDNAKNTVYLQMNSLKPEDPAVYYCAARWTKKQEYGYWGQGTQVTVSS”, the “polyreactivity (PSR sort gate)” value is given as “low polyreactivity”.

On to “QVQLVESGGGLVQAGGSLRLSCAASGSTFPVYVMGWYRQAPGKERELVATITIVVSTKYADSVKGRFTISRDNAKNTVYLQMNSLKPEDTAVYYCAKDDVYRDSYLVFDGEMDYWGQGTQVTVSS”, for which the “polyreactivity (PSR sort gate)” value was “low polyreactivity”.

On to “QDQLVESGGGLVQAGGSLRLSCAASGFIFYYNAMAWYRHAPGKERELVAAISYVGGSTYYADSVKGRFTISRDNAKNTVYLQLNSLKPEDTAFYYCAARVYWWIASLAGNYWGQGTQVSVSS”, for which the “polyreactivity (PSR sort gate)” value is “low polyreactivity”.
